{
  "source": "patent US20260207759A1",
  "about": "“COMPOSITION OF CD40-BINDING MOLECULE AND PHARMACEUTICAL USE THEREOF” (SUZHOU SUNCADIA BIOPHARMACEUTICALS CO., LTD., priority 2022, published 2026)",
  "key": {"CD40 [1]": {"molecular_target": "T1, CD40 (Homo sapiens, UniProt P25942)", "experiment": "SPR (Biacore) affinity of anti-CD40 antibodies for human CD40", "assay_type": "binding", "parameters": "Glu21-Arg193; purchased Acrobiosystems Inc. CD0-H5228", "conditions": "mobile phase Human CD40", "procedure": "The test antibody was affinity-captured on an anti-human Fc chip, and a series of concentrations of His-tagged human or cynomolgus monkey CD40 antigen were allowed to flow over the chip surface. Reaction signals were detected in real time using a Biacore instrument, and thus association and dissociation curves were obtained. The buffer used in the experiment was HBS-EP+10× buffer solution (Cat. #BR-1006-69, GE) diluted to 1×(pH 7.4) with D. I. Water. Fitting was performed on the data obtained from the experiment using a (1:1) Binding model to obtain affinity values."}, "CD40 [2]": {"molecular_target": "T1, CD40", "experiment": "B cell activation assay system (human PBMCs, CD40L-induced CD19+CD69+)", "assay_type": "cell-based", "parameters": "endogenous in cells; host or cells: human PBMCs (B cells); DCs differentiated from human CD14+ monocytes", "conditions": "CD40L stimulation overnight", "procedure": "CD40 is highly expressed in B cells, and CD40L, upon binding to CD40, can induce B cell activation and up-regulate the expression of a series of activation markers. CD40 antagonistic antibodies block the binding of CD40L to CD40, thereby eliminating the immune activation process of B cells.\nHuman PBMCs were plated at 2E5 cells/well and 50 μL/well into a 96-well cell culture plate (the medium was RPMI-1640 containing 10% FBS and 1% penicillin-streptomycin). Serially diluted test antibodies were added at 50 μL/well, and the cells were co-incubated at 37° C. in 5% CO2 for 0.5 h. CD40L-his and an anti-His antibody were added to each well for overnight stimulation. The following day, the plate was centrifuged, the supernatant was removed, and the cells were washed twice with FACS buffer and stained at room temperature for 15 min with 100 μL of Fixable viability dye EF780 (Invitrogen, 65086514) diluted at 1:1000. The cells were washed twice and then blocked at room temperature for 10 min with 100 μL of human Fc blocker (BD, 564220) diluted at 1:200. After centrifugation, the cells were incubated at 4° C. for 0.5 h with flow cytometry antibodies (PerCP/Cyanine5.5 anti-human CD19 (Biolegend, 302230), and APC anti-human CD69 (Biolegend, 310910)) diluted at 1:200. After centrifugation, the supernatant was removed, the cells were washed twice with FACS buffer and then resuspended in 200 μL of PBS, and the fluorescence intensity on the cell surface was measured by a flow cytometer (BD FACS Celesta).\nWith reference to the method in Example 10, the inhibitory activity of the anti-CD40 antibody 9E6-L4H2-AAYTE carrying the AAYTE mutation in the Fc in the B cell activation assay system was measured."}, "[3]": {"system": "human CD40 transgenic mice", "experiment": "Mouse T cell-dependent humoral immune response (TDAR) model, anti-KLH specific IgG", "assay_type": "in vivo", "conditions": "0.3 mpk BIW ip, hCD40 transgenic mice (IgG1 control 1 mg/kg)", "procedure": "On day 0 of the experiment, one of the mice in each group was subjected to blood collection followed by intraperitoneal injection. On day 1, each mouse was intraperitoneally injected with 50 μg of KLH (KLH:complete Freund's adjuvant (CFA)=1:1 emulsified immune complex) for immunization. On day 15 of the experiment, each mouse was intraperitoneally injected with 50 μg of KLH (KLH:incomplete Freund's adjuvant (IFA)=1:1 emulsified immune complex) for a second immunization. Each group was intraperitoneally injected twice a week, and blood samples of about 150 μL were collected from the orbital venous plexus on days 7, 14, 21, and 28. Whole blood was left to stand at room temperature for 1-4 h and centrifuged at 7000 rpm at 4° C. for 10 min to separate serum, and the serum was stored at −80° C. for later use.\nMouse serum was separated weekly and assayed by ELISA for the anti-KLH specific IgG level."}, "CD40 [4]": {"molecular_target": "T1, CD40", "experiment": "Reporter gene cell activity of chimeric anti-CD40 antibodies (HEK-Blue CD40L cells, CD40L-induced SEAP)", "assay_type": "cell-based", "parameters": "host or cells: HEK-Blue CD40L cells", "conditions": "CD40L-stimulated HEK-Blue CD40L cells", "procedure": "HEK-Blue CD40L cells were purchased from Invivogen (Cat. #hkb-cd40). The cells were stably transfected with the human CD40 gene and the NF-kB-mediated SEAP genome. The activation level of the CD40 signaling pathway can be characterized by detecting the secreted SEAP in the supernatant using QUANTI-Blue, the substrate of SEAP. In this experiment, the in vitro antagonist activity of anti-CD40 antibodies was assessed according to IC50 by detecting the activation of HEK-Blue CD40L cells by CD40L. HEK-Blue CD40L cells were cultured in a DMEM medium containing 10% FBS, 100 μg/mL Zeocin, and 30 μg/mL Blasticidin, and passaged 2-3 times in a week at a ratio of 1:5 or 1:10. During passaging, the medium was pipetted off, and the cell layer was rinsed with 5 mL of 0.25% pancreatin. Then the pancreatin was pipetted off, the cells were digested in an incubator for 3-5 min, and then a fresh medium was added to resuspend cells. 100 μL of cell suspension was added to a 96-well cell culture plate at a density of 5×10^5 cells/mL. The medium was DMEM containing 10% FBS, 100 μg/mL Zeocin, and 30 μg/mL Blasticidin. Only 100 μL of sterile water was added to the peripheral wells of the 96-well plate. […] The absorbance at 630 nm was measured with a microplate reader (Thermo MultiSkanFc), and IC50 values were calculated and used to assess the in vitro cell activity of the anti-CD40 antibodies."}},
  "data": [
    {"substance": "CFZ533: anti-CD40 antagonistic antibody CFZ533 (i.e., iscalimab), positive control, variable regions from U.S. Pat. No. 8,277,810B", "values": [
      {"measurement": "Ka", "setting": "CD40 [1]", "result": 688000, "unit": "M⁻¹ s⁻¹"},
      {"measurement": "Kd", "setting": "CD40 [1]", "result": 0.205, "unit": "nM"},
      {"measurement": "koff (dissociation rate constant, 1/s)", "setting": "CD40 [1]", "result": 0.000141, "unit": "s⁻¹"},
      {"measurement": "CD19+CD69+ % Maximum inhibition rate", "setting": "CD40 [2]", "result": 95, "unit": "%"},
      {"measurement": "CD19+CD69+ MFI Maximum inhibition rate", "setting": "CD40 [2]", "result": 110, "unit": "%"},
      {"measurement": "IC50", "setting": "CD40 [2]; read-out: CD19+CD69+ % IC50", "result": 0.14, "unit": "nM"},
      {"measurement": "IC50", "setting": "CD40 [2]; read-out: CD19+CD69+ MFI IC50", "result": 0.07, "unit": "nM"},
      {"measurement": "anti-KLH specific IgG, Day 7", "setting": "[3]", "result": "0.04 ± 0.01"},
      {"measurement": "anti-KLH specific IgG, Day 14", "setting": "[3]", "result": "30.9 ± 10.8"},
      {"measurement": "anti-KLH specific IgG, Day 21", "setting": "[3]", "result": "845 ± 423"},
      {"measurement": "anti-KLH specific IgG, Day 28", "setting": "[3]", "result": "3043 ± 1600"},
      {"measurement": "IC50", "setting": "CD40 [4]", "result": 0.272, "unit": "nM"}
    ]}
  ]
}
